In PMC4771870:

Target: mMBP-fused VERL-Fb (fragment of vitelline envelope receptor for lysin)
Assay: crystal structure; crystals of the mMBP-VERL-Fb fusion, space group P2(1), 2.9 Å, molecular replacement with MBP; refinement ongoing

Sequence of mMBP-fused VERL-Fb (fragment of vitelline envelope receptor for lysin) (Q8WR62 25-3722): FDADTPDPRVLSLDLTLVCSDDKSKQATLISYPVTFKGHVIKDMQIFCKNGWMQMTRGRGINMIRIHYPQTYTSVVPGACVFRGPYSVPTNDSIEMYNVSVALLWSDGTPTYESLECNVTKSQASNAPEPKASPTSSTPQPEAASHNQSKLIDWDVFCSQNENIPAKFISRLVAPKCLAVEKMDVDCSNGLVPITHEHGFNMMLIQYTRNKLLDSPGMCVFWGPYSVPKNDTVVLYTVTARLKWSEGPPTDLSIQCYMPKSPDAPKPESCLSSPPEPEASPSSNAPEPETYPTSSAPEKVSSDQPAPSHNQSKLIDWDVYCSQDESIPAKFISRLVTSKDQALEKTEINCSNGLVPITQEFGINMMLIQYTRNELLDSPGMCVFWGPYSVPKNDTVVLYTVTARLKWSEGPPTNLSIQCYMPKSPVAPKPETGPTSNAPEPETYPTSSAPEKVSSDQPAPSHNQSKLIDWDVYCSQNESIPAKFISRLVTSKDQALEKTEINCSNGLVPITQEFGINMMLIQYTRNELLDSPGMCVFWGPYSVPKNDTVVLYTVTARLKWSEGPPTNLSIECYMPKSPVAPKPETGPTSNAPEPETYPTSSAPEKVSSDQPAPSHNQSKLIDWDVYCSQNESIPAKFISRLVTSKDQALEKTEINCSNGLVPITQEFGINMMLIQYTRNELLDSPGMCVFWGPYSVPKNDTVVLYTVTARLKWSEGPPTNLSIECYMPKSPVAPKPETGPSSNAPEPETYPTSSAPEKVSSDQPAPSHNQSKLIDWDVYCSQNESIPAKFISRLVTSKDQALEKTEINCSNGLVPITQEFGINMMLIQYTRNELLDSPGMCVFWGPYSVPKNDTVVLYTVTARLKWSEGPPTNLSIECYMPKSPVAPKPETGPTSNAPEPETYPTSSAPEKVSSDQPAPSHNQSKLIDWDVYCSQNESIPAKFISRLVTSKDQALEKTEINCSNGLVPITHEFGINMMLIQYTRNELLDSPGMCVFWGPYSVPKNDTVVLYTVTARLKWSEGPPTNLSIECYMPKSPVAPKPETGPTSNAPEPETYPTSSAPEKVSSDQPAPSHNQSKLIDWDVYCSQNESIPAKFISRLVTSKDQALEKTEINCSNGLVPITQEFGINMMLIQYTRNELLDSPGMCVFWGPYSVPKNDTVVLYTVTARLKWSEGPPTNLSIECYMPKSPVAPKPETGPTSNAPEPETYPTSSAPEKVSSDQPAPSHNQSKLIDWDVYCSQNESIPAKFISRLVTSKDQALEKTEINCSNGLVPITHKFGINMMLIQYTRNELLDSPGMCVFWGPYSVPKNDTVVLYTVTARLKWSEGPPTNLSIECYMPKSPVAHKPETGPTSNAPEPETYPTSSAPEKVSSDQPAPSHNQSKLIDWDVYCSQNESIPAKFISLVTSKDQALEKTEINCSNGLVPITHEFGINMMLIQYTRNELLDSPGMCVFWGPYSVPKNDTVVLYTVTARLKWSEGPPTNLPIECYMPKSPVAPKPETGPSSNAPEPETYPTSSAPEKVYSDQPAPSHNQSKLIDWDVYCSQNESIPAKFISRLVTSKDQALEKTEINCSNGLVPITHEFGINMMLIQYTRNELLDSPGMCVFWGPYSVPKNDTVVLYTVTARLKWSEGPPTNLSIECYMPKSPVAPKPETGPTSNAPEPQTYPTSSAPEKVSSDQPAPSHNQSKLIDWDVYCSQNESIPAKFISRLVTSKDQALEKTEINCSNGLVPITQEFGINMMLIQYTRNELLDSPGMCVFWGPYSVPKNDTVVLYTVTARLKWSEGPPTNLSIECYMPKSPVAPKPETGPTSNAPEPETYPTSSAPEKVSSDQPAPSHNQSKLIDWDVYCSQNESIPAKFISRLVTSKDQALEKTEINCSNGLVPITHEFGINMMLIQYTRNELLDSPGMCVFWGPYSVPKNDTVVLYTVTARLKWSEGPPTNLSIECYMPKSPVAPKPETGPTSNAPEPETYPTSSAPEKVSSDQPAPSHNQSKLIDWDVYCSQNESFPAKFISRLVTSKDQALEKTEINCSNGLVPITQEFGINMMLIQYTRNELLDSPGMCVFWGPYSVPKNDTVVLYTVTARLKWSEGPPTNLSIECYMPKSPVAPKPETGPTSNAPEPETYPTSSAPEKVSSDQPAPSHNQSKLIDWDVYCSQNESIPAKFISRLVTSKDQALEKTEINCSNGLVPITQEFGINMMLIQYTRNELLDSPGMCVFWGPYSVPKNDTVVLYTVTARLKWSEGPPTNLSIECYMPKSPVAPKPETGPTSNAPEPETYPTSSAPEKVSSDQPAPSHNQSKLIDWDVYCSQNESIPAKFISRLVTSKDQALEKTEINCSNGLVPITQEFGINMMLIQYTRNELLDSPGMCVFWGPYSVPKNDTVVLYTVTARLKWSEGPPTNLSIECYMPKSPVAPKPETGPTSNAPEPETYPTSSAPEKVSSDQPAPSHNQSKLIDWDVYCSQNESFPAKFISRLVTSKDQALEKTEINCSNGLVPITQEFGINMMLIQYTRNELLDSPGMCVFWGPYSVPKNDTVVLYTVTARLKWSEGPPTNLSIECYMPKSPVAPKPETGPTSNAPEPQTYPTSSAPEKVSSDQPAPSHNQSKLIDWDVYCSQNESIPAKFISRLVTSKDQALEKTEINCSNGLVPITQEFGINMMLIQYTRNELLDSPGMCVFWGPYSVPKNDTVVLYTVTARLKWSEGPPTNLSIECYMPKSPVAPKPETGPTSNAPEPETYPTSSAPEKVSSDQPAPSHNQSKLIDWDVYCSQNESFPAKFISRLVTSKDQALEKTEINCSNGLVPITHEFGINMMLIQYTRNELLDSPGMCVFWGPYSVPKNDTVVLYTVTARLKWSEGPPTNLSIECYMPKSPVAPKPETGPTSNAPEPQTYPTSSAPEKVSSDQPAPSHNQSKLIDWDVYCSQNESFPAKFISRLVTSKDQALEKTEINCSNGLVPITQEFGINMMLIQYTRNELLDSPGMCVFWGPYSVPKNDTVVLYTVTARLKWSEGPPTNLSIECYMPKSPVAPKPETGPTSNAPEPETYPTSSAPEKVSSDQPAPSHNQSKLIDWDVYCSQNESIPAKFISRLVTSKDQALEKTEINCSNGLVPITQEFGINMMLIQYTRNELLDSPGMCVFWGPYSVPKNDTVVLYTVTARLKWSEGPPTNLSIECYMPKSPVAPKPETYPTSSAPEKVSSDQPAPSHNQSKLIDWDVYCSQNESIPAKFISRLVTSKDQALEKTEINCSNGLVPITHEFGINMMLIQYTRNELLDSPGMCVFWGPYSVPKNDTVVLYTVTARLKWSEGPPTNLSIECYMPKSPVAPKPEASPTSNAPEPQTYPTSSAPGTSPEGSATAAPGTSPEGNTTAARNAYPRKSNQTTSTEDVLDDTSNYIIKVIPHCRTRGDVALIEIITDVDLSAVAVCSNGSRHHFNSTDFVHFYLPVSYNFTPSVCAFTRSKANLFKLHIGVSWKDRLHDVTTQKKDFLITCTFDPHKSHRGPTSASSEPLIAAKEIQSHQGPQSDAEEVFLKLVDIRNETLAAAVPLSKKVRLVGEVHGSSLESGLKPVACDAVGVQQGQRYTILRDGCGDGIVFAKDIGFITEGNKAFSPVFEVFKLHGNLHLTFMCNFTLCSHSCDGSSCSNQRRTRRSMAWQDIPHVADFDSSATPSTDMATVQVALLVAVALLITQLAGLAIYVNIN

mMBP-fused VERL-Fb (fragment of vitelline envelope receptor for lysin) (domain or fragment)
stoichiometry N: 2
